Measured values: US20210238260A1

Molecular target: antithrombin III (plasma purified human AT-III), used as the AT-III/unfractionated heparin complex (human), P01008
Assay: K0.5: AT-III/UFH titrated against FIXa, 10 s, residual cleavage of Mesyl-D-CHG-Gly-Arg-AMC
Conditions: remark: other sources report otherwise

IC50: 5.88 µM
B1: FIXa-R318Y/R338E/R403E/E410N, P00740 47-191; P00740 227-461 (enzyme)
chain 1: YNSGKLEEFVQGNLERECMEEKCSFEEAREVFENTERTTEFWKQYVDGDQCESNPCLNGGSCKDDINSYECWCPFGFEGKNCELDVTCNIKNGRCEQFCKNSADNKVVCSCTEGYRLAENQKSCEPAVPFPCGRVSVSQTSKLTR
chain 2: VVGGEDAKPGQFPWQVVLNGKVDAFCGGSIVNEKWIVTAAHCVETGVKITVVAGEHNIEETEHTEQKRNVIRIIPHHNYNAAINKYNHDIALLELDEPLVLNSYVTPICIADKEYTNIFLKFGSGYVSGWGRVFHKGYSALVLQYLRVPLVDRATCLESTKFTIYNNMFCAGFHEGGRDSCQGDSGGPHVTEVEGTSFLTGIISWGEECAMKGKYGIYTKVSEYVNWIKNKTKLT
